Here are results for 21 sequences from the supplement of paper PMC9233669.

Variants at the floor of the assay were thinned out.

The subject of series [1] is biotinyl-Phe-oxazolone. Nature of the series: self-aminoacylation, catalytic enhancement (BFO) (fold over background); higher = more active; k-Seq, kA / k0A0; sequences stand for … in GGGAAUGGAUCCACAUCUACGAAUUC…UUCACUGCAGACUUGACGAAGCUG
Put shortly:
(§1)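 Catalytic enhancement equals the median kA over the uncatalyzed rate, the latter read from the low-activity peak of a bimodal Gaussian fit. Values of kA came from fitting each sequence's fraction reacted to a pseudo-first-order model, with 1000 bootstraps. Reacted RNA was captured with streptavidin and quantified by triplicate qPCR and Illumina sequencing after 90 minutes at room temperature with 2–1250 μM biotinyl-aminoacyl-oxazolone and 0.43 μM mutagenized RNA pools bearing a 21-nt variable region.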

The subject of series [2] is biotinyl-Leu-oxazolone. The experiment in a line: self-aminoacylation, catalytic enhancement (BLO) (fold over background); higher = more active; k-Seq, kA / k0A0; sequences stand for … in GGGAAUGGAUCCACAUCUACGAAUUC…UUCACUGCAGACUUGACGAAGCUG
Put shortly:
as §1

Series [3] has as its system biotinyl-Val-oxazolone. Nature of the series: self-aminoacylation, catalytic enhancement (BVO) (fold over background); higher = more active; k-Seq, kA / k0A0; sequences stand for … in GGGAAUGGAUCCACAUCUACGAAUUC…UUCACUGCAGACUUGACGAAGCUG
Put shortly: as §1

Series [4] has as its system biotinyl-Met-oxazolone. Nature of the series: self-aminoacylation, catalytic enhancement (BMO) (fold over background); higher = more active; k-Seq, kA / k0A0; sequences stand for … in GGGAAUGGAUCCACAUCUACGAAUUC…UUCACUGCAGACUUGACGAAGCUG
Put shortly: as §1

For series [5], the system named is biotinyl-Ile-oxazolone. Nature of the series: self-aminoacylation, catalytic enhancement (BIO) (fold over background); higher = more active; k-Seq, kA / k0A0; sequences stand for … in GGGAAUGGAUCCACAUCUACGAAUUC…UUCACUGCAGACUUGACGAAGCUG
Put shortly: as §1

The subject of series [6] is biotinyl-Trp-oxazolone. The experiment in a line: self-aminoacylation, catalytic enhancement (BWO) (fold over background); higher = more active; k-Seq, kA / k0A0; sequences stand for … in GGGAAUGGAUCCACAUCUACGAAUUC…UUCACUGCAGACUUGACGAAGCUG
The method in brief: as §1

As to “AUUACCCUGGCCAUCGAGUGA [Fam2.1 aminoacylation ribozyme variant]”, the self-aminoacylation amounted to 11.7 in series [1]; 3.27 in series [2]; 2.24 in series [3]; 3.27 in series [4]; 2.05 in series [5]; 3.94 in series [6].
“AUUACCCUGGCCAUCGAGUGU [Fam2.1 aminoacylation ribozyme variant]”: the self-aminoacylation in series [1] was found to be 2.1; in series [2] it was 2.04; in series [3], 1.93; in series [4], 3.06; in series [5], 1.42; in series [6], 2.51.
For the sequence “AUUACCCUGGCCAUCGAGUUA [Fam2.1 aminoacylation ribozyme variant]”, the self-aminoacylation turned out to be 0.675 in series [1]; 1.28 in series [2]; 1.12 in series [3]; 1.26 in series [4]; 1.38 in series [5]; 0.729 in series [6].
Take “AUUACCCUGGCUAUCGAGUGA [Fam2.1 aminoacylation ribozyme variant]”: the self-aminoacylation in series [1] stood at 4.17; in series [2], 2.35; in series [3] it was 1.82; in series [4], 2.14; in series [5], 1.54; in series [6], 2.49.
For “AUUACCCUGGGAAUCGAGUGA [Fam2.1 aminoacylation ribozyme variant]”, the self-aminoacylation is 26.8 in series [1]; 5.93 in series [2]; 3.29 in series [3]; 5.72 in series [4]; 2.78 in series [5]; 4.59 in series [6].
With “AUUACCCUGGGCAUCGGGUGA [Fam2.1 aminoacylation ribozyme variant]”, the self-aminoacylation in series [1] was found to be 65.7; in series [2], 11.5; in series [3] it was 6.68; in series [4], 10.4; in series [5] it was 5.62; in series [6] it was 10.8.
Turning to “AUUACCCUGGGCAUUGAGUGA [Fam2.1 aminoacylation ribozyme variant]”, the self-aminoacylation came to 58.7 in series [1]; 11.3 in series [2]; 4.23 in series [3]; 9.32 in series [4]; 4.38 in series [5]; 11.9 in series [6].
Regarding “AUUACCCUGGGCGUCGAGUGA [Fam2.1 aminoacylation ribozyme variant]”, the self-aminoacylation in series [1] is 1.06; in series [2], 1.3; in series [3], 1.44; in series [4], 1.73; in series [5], 1.04; in series [6], 1.04.
For “AUUACCCUGGGUAUCGAGUGA [Fam2.1 aminoacylation ribozyme variant]”, the self-aminoacylation turned out to be 57.8 in series [1]; 10.9 in series [2]; 4.62 in series [3]; 9.85 in series [4]; 4.51 in series [5]; 11.2 in series [6].
On to “AUUACCCUGGUAAGCGAGUGA [Fam2.1 aminoacylation ribozyme variant]”, for which the self-aminoacylation was 42.1 in series [1]; 4.55 in series [2]; 3.21 in series [3]; 5.79 in series [4]; 2.82 in series [5]; 6.48 in series [6].
Turning to “AUUACCCUGGUAAUAGAGUGA [Fam2.1 aminoacylation ribozyme variant]”, the self-aminoacylation amounted to 125 in series [1]; 16.1 in series [2]; 6.61 in series [3]; 16.2 in series [4]; 6.19 in series [5]; 17.9 in series [6].
Take “AUUACCCUGGUAAUCGAGUCA [Fam2.1 aminoacylation ribozyme variant]”: the self-aminoacylation in series [1] turned out to be 0.569; in series [2] it was 0.783; in series [3], 0.838; in series [4], 0.902; in series [5], 0.825; in series [6], 0.473.
“AUUACCCUGGUAAUCGAGUGG [Fam2.1 aminoacylation ribozyme variant]”: the self-aminoacylation stood at 2.83 in series [1]; 2.79 in series [2]; 1.31 in series [3]; 2.85 in series [4]; 1.38 in series [5]; 2.9 in series [6].
In the case of “AUUACCCUGGUAUUCGAGUGA [Fam2.1 aminoacylation ribozyme variant]”, the self-aminoacylation in series [1] was determined as 42.4; in series [2], 7.89; in series [3], 3.65; in series [4], 7.43; in series [5] it was 3.56; in series [6] it was 9.54.
Turning to “AUUACCCUGGUCAACGAGUAA [Fam2.1 aminoacylation ribozyme variant]”, the self-aminoacylation was found to be 1.01 in series [1]; 1.53 in series [2]; 1.44 in series [3]; 1.19 in series [4]; 1.29 in series [5]; 0.972 in series [6].
Take “AUUACCCUGGUCAACGAGUUA [Fam2.1 aminoacylation ribozyme variant]”: the self-aminoacylation was determined as 0.836 in series [1]; 0.662 in series [2]; 0.947 in series [3]; 1.26 in series [4]; 0.971 in series [5]; 0.529 in series [6].
Consider “AUUACCCUGGUCACCAAGUGA [Fam2.1 aminoacylation ribozyme variant]”, for which the self-aminoacylation in series [1] amounted to 34.3; in series [2] it was 6.54; in series [3] it was 3.32; in series [4] it was 6.45; in series [5], 3.47; in series [6], 7.7.
Regarding “AUUACCCUGGUCACCCAGUGA [Fam2.1 aminoacylation ribozyme variant]”, the self-aminoacylation in series [1] turned out to be 46.1; in series [2], 6.87; in series [3] it was 3.6; in series [4], 7.54; in series [5] it was 4.12; in series [6], 8.27.
In the case of “AUUACCCUGGUCACCGAGUUA [Fam2.1 aminoacylation ribozyme variant]”, the self-aminoacylation in series [1] worked out at 1.81; in series [2], 1.26; in series [3], 1.75; in series [4], 1.52; in series [5] it was 1.64; in series [6], 2.34.
“AUUACCCUGGUCACCGCGUGA [Fam2.1 aminoacylation ribozyme variant]”: the self-aminoacylation stood at 98.1 in series [1]; 16.7 in series [2]; 7.05 in series [3]; 14.1 in series [4]; 6.07 in series [5]; 16.7 in series [6].
For “AUUACCCUGGUCAGCGAAUGA [Fam2.1 aminoacylation ribozyme variant]”, the self-aminoacylation in series [1] came to 0.631; in series [2], 1.22; in series [3], 1.31; in series [4], 1.43; in series [5], 1.05; in series [6], 1.38.
